Test results taken from paper PMC11499256, “Two-factor authentication underpins the precision of the piRNA pathway” (Nature, 2024).

Key:
[1] = molecular target: T1, His-tagged SPIN1 (49–262) (mouse, UniProt Q61142 49-262); experiment: SEC; SPIN1–SPOCD1 fragment 1b complex purified on an S200 increase column before the nucleosome pull-down; conditions: both partners purified
T1 construct: mouse SPIN1 (Q61142), amino acids 49–262; 'Purified as above' would include cleavage of the tag, yet the protein is called His-tagged and detected by anti-His; source: E. coli BL21 (DE3), purified

[2] = molecular target: T2, mouse SPIN1 (amino acids 49–262), recombinant, His tag cleaved (mouse, UniProt Q61142 49-262); experiment: pull-down; co-precipitation of recombinant proteins, Coomassie gel, n = 3; conditions: both partners purified
T2 construct: mouse SPIN1 (Q61142), amino acids 49–262; The SPIN1 construct was cleaved with GST–3C protease overnight; also called recombinant SPIN1; source: E. coli BL21 (DE3), purified (His-tag column, 3C cleavage, ion exchange, SEC)
T2 sequence (Q61142 49-262): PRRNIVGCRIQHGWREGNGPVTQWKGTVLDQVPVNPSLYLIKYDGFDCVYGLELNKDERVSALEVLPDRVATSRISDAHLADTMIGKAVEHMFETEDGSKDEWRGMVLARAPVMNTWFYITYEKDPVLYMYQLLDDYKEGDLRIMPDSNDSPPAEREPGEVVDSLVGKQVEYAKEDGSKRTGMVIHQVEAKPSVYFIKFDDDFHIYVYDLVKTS

T1 sequence (Q61142 49-262): as above

| Binder | binding result [1] | binding result [2] |
| --- | --- | --- |
| His-tagged SPOCD1 fragment 1b (domain or fragment, mouse, UniProt B1ASB6 203-409, looked up, source: E. coli BL21 (DE3), purified) VTQEPLQSPALYPEVLTEDSTDQQEVQPAFVVGSPGTPPDPVGPEDKAQSGSRMELEQGLSAPANSCASSPEPLGGLDGAPLEQRRPTHVKKRPWTSPDDSSQDHAEGASKKDFPRLEARVPRGVKTVYYVYTGSGIRLVGAASSSQPGQIEPLEELDTNSARRKRRPTTAHPTPCQSDPSETENAEPHQQRAEDPGEQGMTPLDAG | binds | – |
| mouse GST–SPOCD1-F1b (amino acids 203–409), recombinant (domain or fragment, UniProt B1ASB6 203-409, looked up, pET-based backbone; also called GST–F1b; SPOCD1 fragment 1b; source: E. coli BL21 (DE3), purified (glutathione sepharose, dialysis)) VTQEPLQSPALYPEVLTEDSTDQQEVQPAFVVGSPGTPPDPVGPEDKAQSGSRMELEQGLSAPANSCASSPEPLGGLDGAPLEQRRPTHVKKRPWTSPDDSSQDHAEGASKKDFPRLEARVPRGVKTVYYVYTGSGIRLVGAASSSQPGQIEPLEELDTNSARRKRRPTTAHPTPCQSDPSETENAEPHQQRAEDPGEQGMTPLDAG | – | binds |
